The target in assay [1] is T1, Human BTC (human, UniProt P35070 32-111).
T1 construct: Soluble human BTC of the Biacore, ELISA, MSD and cell assays; also called human betacellulin; soluble human BTC
T1 sequence: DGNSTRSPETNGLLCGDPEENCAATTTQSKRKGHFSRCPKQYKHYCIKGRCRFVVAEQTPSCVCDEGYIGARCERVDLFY
The assay can be described thus: cell-based inhibition of BTC binding to ErbB4.

Assay [2] has as its target T1, Human BTC. The assay can be described thus: inhibition of BTC binding to ErbB4; y axis MSD units, x axis Antibody concentration (pM); blocked partner ErbB4.
The target of assay [3] is T1, Human BTC. The assay can be described thus: SPR (Biacore/ProteOn).
The target of a further assay is T2, Rat BTC (rat, UniProt Q9JJM4 32-111).
T2 sequence: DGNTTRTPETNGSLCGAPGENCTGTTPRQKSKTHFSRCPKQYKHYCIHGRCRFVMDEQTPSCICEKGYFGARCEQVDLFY
The experiment in a line: SPR (Biacore/ProteOn).

For the next assay, the target named is T3, Rabbit BTC (rabbit, UniProt G1SJ89 32-111).
T3 sequence: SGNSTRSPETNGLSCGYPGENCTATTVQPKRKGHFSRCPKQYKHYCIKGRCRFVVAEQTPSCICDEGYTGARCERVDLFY
The experiment in a line: SPR (Biacore/ProteOn).

For a further assay, the target named is T4, Mouse BTC (mouse, UniProt Q05928 32-111, limits assumed).
T4 sequence (looked up): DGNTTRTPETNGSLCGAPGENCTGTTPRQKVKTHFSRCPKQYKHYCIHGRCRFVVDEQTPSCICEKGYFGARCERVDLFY
The experiment in a line: SPR (Biacore/ProteOn). On the technique in general: Surface plasmon resonance follows binding to a sensor surface in real time, without labels.

A further assay has as its target T5, Cyno BTC (cynomolgus, UniProt A0A2K5X5E5 32-111).
T5 construct: also called cynomolgus BTC
T5 sequence: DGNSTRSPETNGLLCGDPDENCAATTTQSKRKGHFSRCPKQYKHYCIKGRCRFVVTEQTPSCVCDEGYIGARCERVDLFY
The assay can be described thus: SPR (Biacore/ProteOn).

Assay [4] has as its target T1, Human BTC. The assay can be described thus: SPR Biacore T200, anti-Fab capture, antigen as analyte.
The target in assay [5] is T1, Human BTC. The experiment in a line: MSD-based inhibition of BTC binding to ErbB1.
Assay [6] has as its target T6, Human BTC-avitag-biotin (human, UniProt P35070 32-111, biotin on the avitag).
T6 construct: also called biotin-BTC; soluble human BTC-avitag-biotin
T6 sequence: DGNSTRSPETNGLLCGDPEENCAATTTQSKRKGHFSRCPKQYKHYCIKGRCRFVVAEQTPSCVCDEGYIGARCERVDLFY
The experiment in a line: flow cytometry, BTC-ErbB1 Cell Binding Inhibition: antibody pre-incubated with 15 nM human BTC-avitag-biotin, HKB11 cells over-expressing human ErbB1; y axis Percent Inhibition. The procedure:
(§1) HKB11 over-expressing either ErbB1 or ErbB4 cells were plated 1×10⁵ cells/well. Cells were washed once with FACS buffer by spun down at 1200 rpm for 5 minutes and supernatant removed. Next, the Fab sample dilutions and BTC were prepared in FACS buffer. Human BTC-avitag-biotin was diluted to a fixed concentration of 15 nM. The test Fab samples were prepared at a starting concentration of 40 nM and titrated for 9 points at a serial dilution of 1:2. Both biotin-BTC and the test Fab samples are incubated for 30 minutes at room temperature. The pre-incubated samples were then added to the cell plate at 100 μl per well in duplicate and incubated for 1 hour on ice. The plate was then washed once in FACS buffer and spun down at 1200 rpm for 5 minutes and supernatant removed. […]
(§2) Measurements were performed on Attune Flow Cytometry machine. Data were analysed using the Flow Jo software. The live cell populations analysed were gated in forward and side scattering (FSC-A/SSC-A dot plot). The interval gate was established on the control histogram, which was obtained with sample incubated in streptavidin-Alexa Fluor488 only, and subsequently, determined percent of positive binding events of cells carrying membrane-bound receptor ErbB1 or ErbB4 and biotin-BTC. The median of fluorescence intensity (MFI) value was also derived for the live cell population. […]
A general note: In flow cytometry, cells or beads pass a laser one at a time.

Assay [7] addresses T7, membrane-bound human BTC on 293F-hBTC cells (human, UniProt P35070 32-111).
T7 sequence: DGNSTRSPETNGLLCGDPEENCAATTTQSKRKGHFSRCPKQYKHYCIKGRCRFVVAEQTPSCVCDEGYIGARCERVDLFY
The experiment in a line: cell-based or functional assay.

Assay [8] addresses T1, Human BTC. The experiment in a line: cell-based or functional assay.
For assay [9], the target named is T6, Human BTC-avitag-biotin. The experiment in a line: flow cytometry, BTC-ErbB4 Cell Binding Inhibition: antibody pre-incubated with 15 nM human BTC-avitag-biotin, HKB11 cells over-expressing human ErbB4; y axis Percent Inhibition. The procedure: as §1, §2
The target in the next assay is T8, Human VEGF165 (human, UniProt P15692 27-191).
T8 construct: mature; biotinylated in the VEGFR2 ELISAs; also called human VEGF-A; VEGF-A
T8 sequence (P15692 other isoform, or with tags, fused parts or gaps): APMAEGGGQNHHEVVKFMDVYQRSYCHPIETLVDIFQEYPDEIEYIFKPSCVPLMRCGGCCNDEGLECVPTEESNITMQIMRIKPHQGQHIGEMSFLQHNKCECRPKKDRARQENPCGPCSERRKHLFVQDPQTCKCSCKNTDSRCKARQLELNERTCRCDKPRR
The experiment in a line: competition ELISA: antibody pre-incubated with VEGF-biotin, added to coated VEGFR2. The procedure: The plates were then washed 3 times using 1λTBST. The plates were blocked in 2% BSA diluent (0.1% Tween 20/0.1% TirtonX100) overnight. After blocking, the plates were washed 3 times using TB ST and then the sample mixture was added at 20 μl/well. The sample mixture consisted a final fixed concentration of VEGF-biotin (in-house) at 400 pM and a 15 point 1:2 serial dilution of the antibody starting at 20 nM. The sample mixture was pre-incubated for 1 hour prior to adding to the plate and then incubated for another hour at room temperature on the plate. Afterwards, the plate was washed 3 times using TBST and 20 μl/well of Streptavidin-HRP diluted at 1:5000 was added for an incubation time of 1 hour. The plates were washed 3 times in TBST and then 20 μl/well of TMB substrate was added. TMB is a chromogen that yields a blue color when oxidized. TMB was incubated for 10 minutes until the signal saturated in the no antibody samples, and then 10 μl/well of 2N sulfuric acid was added which then changes the blue color to yellow and this now has a maximum absorbance at 450 nm.

B1: NVS1 (Fab, V domains shown)
VH: QVQLVQSGAEVKKPGSSVKVSCKASGGTFSSYAISWVRQAPGQGLEWMGGIVPWMGEAVYAQKFQGRVTITADESTSTAYMELSSLRSEDTAVYYCARSSSTYGIHAFDYWGQGTLVTVSS
VL: DIQMTQSPSSLSASVGDRVTITCRASQSISNFLNWYQQKPGKAPKLLIYAASNLQSGVPSRFSGSGSGTDFTLTISSLQPEDFATYYCQQYDDFPMTFGQGTKVEIKR
notes: also called Fab NVS1; NVS1 Fab
What is called IC50 is the concentration at which inhibition is half-maximal. What is called Kd is the constant that tells how readily two partners part at equilibrium. A high value points to a looser complex. As usually defined, the inhibition is the percentage by which the read-out fell short of the control. The low end stands for little suppression, the high end for strong suppression. For the molecule B1, in the assay with Human BTC [1], the “Cell-based binding inhibition BTC/ErbB4” value is above 90%. The IC50 with Human BTC [2] amounted to 591 pM; with Human BTC-avitag-biotin [6], 2500 pM; with Human BTC-avitag-biotin [9], 7400 pM. The Kd in the assay with Human BTC [3] stood at 6 pM; with Rat BTC, 7 pM; in the assay with Rabbit BTC, 4 pM; with Mouse BTC, 4 pM; in the assay with Cyno BTC, 8 pM; in the assay with Human BTC [4], 1.7 pM. Further, the “MSD-based binding inhibition BTC/ErbB1” value with Human BTC [5] was above 90%. Moreover, the “Neutralization of juxtacrine signaling” value in assay [7] worked out at 89%. Besides, the “A431 pERK (IC50 in nM)” value with Human BTC [8] turned out to be 0.25 nM. The “ADR/Res pErbB3 (IC50 in nM)” value with Human BTC [8] was 5.7 nM. Moreover, the inhibition with Human BTC [8] was 99.7%. For the same molecule, the binding result with Human VEGF165 is given as “no binding (tested: 20000 pM)”.

The values are drawn from patent publication US20220025032A1 (Novartis, published 2022).
